US20110269938A1 (COMMONWEALTH SCIENTIFIC AND INDUSTRIAL RESEARCH ORGANISATION, published 2011)
Changes are numbered by the printed parent chain.

Experiments:
[1] = molecular target: the molecule itself; assay: Western blot of periplasmic fraction (self-association)
[2] = molecular target: the molecule itself; assay: self-association of familial mutation variants
[3] = molecular target: the molecule itself; assay: Western blot of periplasmic fraction, self-association

B1: IgNAR single variable domain antibody 12Y-2 (VNAR)
VNAR: AWVDQTPRTATKETGESLTINCVLRDASFELKDTGWYRTKLGSTNEQSISIGGRYVETVNKGSKSFSLRISDLRVEDSGTYKCQAFYSLPLGDYNYSLLFRGEKGAGTALTVKA
notes: Scaffold without Aβ insert, used as the monomeric control; also called IgNAR wt; wild type IgNAR
B1: no binding [1].

B2: Aβ-IgNAR 37F-2 (Asp23Asn) (VNAR)
VNAR: AWVDQTPRTATKETGESLTINCVLRDASFELKDTGWYRTKLGSTNEQSISIGGRYVETVNKGSKSFSLRISDLRVEDSGTYKCQAFYVFFAENVGSNKGAIIGLMVGGVVIGGEKGAGTALTVKA
notes: also called familial mutant Asp23Asn
B2: binds [2].

B3: Aβ-IgNAR 37K-1 (Glu22Gln) (VNAR)
VNAR: B2 VNAR with E92Q, N93D
notes: also called familial mutant Glu22Gln
B3: binds [2].

B4: Aβ-IgNAR 37L-2 (Ala21Gly) (VNAR)
VNAR: B2 VNAR with A91G, N93D
notes: also called familial mutant Ala21Gly
B4: binds [2].

B5: Aβ-IgNAR-G6 (VNAR)
VNAR: AWVDQTPRTATKETGESLTINCVLRDASFELKDTGWYRTKLGSTNEQSISIGGRYVETVNKGSKSFSLRISDLRVEDSGTYKCQAFYGGGLVFFAEDVGSNKGAIIGLMVGGVVIAGGGGEKGAGTALTVKA
notes: No crystals obtained; also called 37Q-6; glycine-6 version
B5: binds [3].

B6: Aβ-IgNAR 37R-1 (ΔGlu22) (VNAR)
VNAR: AWVDQTPRTATKETGESLTINCVLRDASFELKDTGWYRTKLGSTNEQSISIGGRYVETVNKGSKSFSLRISDLRVEDSGTYKCQAFYVFFADVGSNKGAIIGLMVGGVVIGGEKGAGTALTVKA
notes: also called familial mutant ΔGlu22
B6: binds [2].

B7: Aβ-IgNAR-G3 (VNAR)
VNAR: AWVDQTPRTATKETGESLTINCVLRDASFELKDTGWYRTKLGSTNEQSISIGGRYVETVNKGSKSFSLRISDLRVEDSGTYKCQAFYGLVFFAEDVGSNKGAIIGLMVGGVVIAGGGEKGAGTALTVKA
notes: No crystals obtained; also called 37A-1; glycine-3 version
B7: binds [3].
